Article PMC9482650, “Quantitative fragmentomics allow affinity mapping of interactomes” (Nature Communications, 2022)

T1: ARHGEF11, O15085
T1 sequence (O15085 42-136, limits assumed, looked up): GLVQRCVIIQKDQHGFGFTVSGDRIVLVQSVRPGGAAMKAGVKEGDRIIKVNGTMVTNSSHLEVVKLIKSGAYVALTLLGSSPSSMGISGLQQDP

T2: DFNB31_1, Q9P202
T2 sequence (Q9P202 135-233, limits assumed, looked up): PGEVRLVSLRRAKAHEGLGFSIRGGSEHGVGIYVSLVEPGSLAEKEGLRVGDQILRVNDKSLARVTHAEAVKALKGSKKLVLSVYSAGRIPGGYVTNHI

T3: GRIP1_7, Q9Y3R0
T3 sequence (Q9Y3R0 999-1096, limits assumed, looked up): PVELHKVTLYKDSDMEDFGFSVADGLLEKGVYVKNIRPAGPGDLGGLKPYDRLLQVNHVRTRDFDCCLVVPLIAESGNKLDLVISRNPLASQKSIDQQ

T4: HTRA4, P83105
T4 sequence (P83105 378-476, limits assumed, looked up): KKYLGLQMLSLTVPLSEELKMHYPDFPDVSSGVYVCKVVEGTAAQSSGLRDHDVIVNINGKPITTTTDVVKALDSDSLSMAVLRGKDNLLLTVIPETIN

T5: LIN7A, O14910
T5 sequence (O14910 103-200, limits assumed, looked up): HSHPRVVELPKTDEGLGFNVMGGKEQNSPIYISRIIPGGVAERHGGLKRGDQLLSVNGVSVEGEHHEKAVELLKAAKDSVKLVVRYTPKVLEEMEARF

T6: LNX2_2, Q8N448
T6 sequence (Q8N448 334-432, limits assumed, looked up): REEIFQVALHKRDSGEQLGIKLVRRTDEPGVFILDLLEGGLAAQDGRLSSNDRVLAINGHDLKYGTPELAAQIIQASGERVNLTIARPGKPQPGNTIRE

T7: MPDZ_10, O75970
T7 sequence (O75970 1624-1722, limits assumed, looked up): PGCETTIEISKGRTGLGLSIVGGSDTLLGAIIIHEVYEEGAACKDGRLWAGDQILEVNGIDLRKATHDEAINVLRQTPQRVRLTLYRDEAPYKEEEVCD

T8: MPP2, Q14168
T8 sequence (Q14168 180-250, limits assumed, looked up): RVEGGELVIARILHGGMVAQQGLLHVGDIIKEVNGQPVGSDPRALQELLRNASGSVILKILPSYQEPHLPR

T9: NHERF3_4, Q5T2W1
T9 sequence (Q5T2W1 373-468, limits assumed, looked up): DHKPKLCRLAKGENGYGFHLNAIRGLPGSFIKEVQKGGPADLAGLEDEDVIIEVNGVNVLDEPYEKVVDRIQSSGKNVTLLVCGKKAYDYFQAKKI

T10: PCLO, Q9Y6V0
T10 sequence (Q9Y6V0 4491-4600, limits assumed, looked up): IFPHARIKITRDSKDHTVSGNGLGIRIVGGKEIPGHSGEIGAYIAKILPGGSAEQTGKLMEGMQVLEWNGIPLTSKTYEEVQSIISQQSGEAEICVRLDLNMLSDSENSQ

T11: RADIL, Q96JH8
T11 sequence (Q96JH8 971-1071, limits assumed, looked up): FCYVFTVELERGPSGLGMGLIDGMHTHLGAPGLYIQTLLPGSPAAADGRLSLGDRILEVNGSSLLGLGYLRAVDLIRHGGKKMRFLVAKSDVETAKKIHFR

T12: TX1BP3, O14907
T12 sequence (O14907 10-122, limits assumed, looked up): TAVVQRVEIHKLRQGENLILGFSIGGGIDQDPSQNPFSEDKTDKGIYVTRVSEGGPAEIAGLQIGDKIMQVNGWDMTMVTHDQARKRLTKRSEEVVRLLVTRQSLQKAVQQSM


Key:
Assay in all cases: holdup assay
Set-up in all cases: key: below the threshold = too weak to quantify, mostly under pKd 3.1 to 4
Details in all cases: plain residues with an end cap or a label only (N-terminal biotin on a linker: ado-ado)
ARHGEF11, O15085 = target: T1, ARHGEF11, O15085
DFNB31_1, Q9P202 = target: T2, DFNB31_1, Q9P202
FRMPD2_1, Q68DX3 = target: FRMPD2_1, Q68DX3
Chain of FRMPD2_1, Q68DX3 (Q68DX3 770-861): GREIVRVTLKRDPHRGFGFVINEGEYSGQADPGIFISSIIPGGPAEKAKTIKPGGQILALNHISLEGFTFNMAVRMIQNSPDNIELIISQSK

FRMPD2_2, Q68DX3 = target: FRMPD2_2, Q68DX3
Chain of FRMPD2_2, Q68DX3 (Q68DX3 944-1038): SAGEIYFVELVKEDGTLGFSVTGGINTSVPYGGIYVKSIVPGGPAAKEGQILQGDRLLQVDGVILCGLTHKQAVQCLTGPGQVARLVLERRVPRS

GOPC, Q9HD26 = target: GOPC, Q9HD26
GRIP1_7, Q9Y3R0 = target: T3, GRIP1_7, Q9Y3R0
HTRA4, P83105 = target: T4, HTRA4, P83105
IL16_3, Q14005 = target: IL16_3, Q14005
Chain of IL16_3, Q14005 (Q14005 1107-1207): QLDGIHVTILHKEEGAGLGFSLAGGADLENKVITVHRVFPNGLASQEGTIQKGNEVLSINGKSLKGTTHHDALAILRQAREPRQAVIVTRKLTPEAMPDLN

Inadl_10, Q8NI35 = target: Inadl_10, Q8NI35
Chain of Inadl_10, Q8NI35 (Q8NI35 1673-1763): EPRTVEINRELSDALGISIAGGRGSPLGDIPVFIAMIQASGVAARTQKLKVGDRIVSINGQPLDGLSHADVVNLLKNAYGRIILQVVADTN

Inadl_5, Q8NI35 = target: Inadl_5, Q8NI35
Chain of Inadl_5, Q8NI35 (Q8NI35 673-780): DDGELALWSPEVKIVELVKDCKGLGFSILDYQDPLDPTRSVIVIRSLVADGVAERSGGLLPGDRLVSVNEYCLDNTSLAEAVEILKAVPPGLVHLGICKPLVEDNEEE

Inadl_9, Q8NI35 = target: Inadl_9, Q8NI35
Chain of Inadl_9, Q8NI35 (Q8NI35 1530-1615): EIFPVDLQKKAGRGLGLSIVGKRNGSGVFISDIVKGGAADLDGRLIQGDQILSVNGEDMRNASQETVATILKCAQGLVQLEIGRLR

LIN7A, O14910 = target: T5, LIN7A, O14910
LNX1_3, Q8TBB1 = target: LNX1_3, Q8TBB1
Chain of LNX1_3, Q8TBB1 (Q8TBB1 500-596): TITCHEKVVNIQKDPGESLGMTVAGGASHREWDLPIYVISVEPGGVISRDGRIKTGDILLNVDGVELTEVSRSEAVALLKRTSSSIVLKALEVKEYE

LNX2_2, Q8N448 = target: T6, LNX2_2, Q8N448
MAGI1_1, Q96QZ7 = target: MAGI1_1, Q96QZ7
Chain of MAGI1_1, Q96QZ7 (Q96QZ7 1-106): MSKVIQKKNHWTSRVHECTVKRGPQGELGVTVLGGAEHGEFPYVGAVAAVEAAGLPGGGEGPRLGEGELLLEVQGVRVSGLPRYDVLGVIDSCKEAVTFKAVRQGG

MAGI1_2, Q96QZ7 = target: MAGI1_2, Q96QZ7
Chain of MAGI1_2, Q96QZ7 (Q96QZ7 456-580): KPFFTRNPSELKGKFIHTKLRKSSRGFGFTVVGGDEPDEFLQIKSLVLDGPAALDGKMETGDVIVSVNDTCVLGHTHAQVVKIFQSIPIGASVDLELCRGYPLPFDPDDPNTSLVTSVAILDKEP

MAGI3_2, Q5TCQ9 = target: MAGI3_2, Q5TCQ9
Chain of MAGI3_2, Q5TCQ9 (Q5TCQ9 398-503): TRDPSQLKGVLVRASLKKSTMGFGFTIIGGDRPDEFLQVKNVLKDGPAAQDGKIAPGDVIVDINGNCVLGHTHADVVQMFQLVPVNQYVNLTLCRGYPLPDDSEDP

MPDZ_10, O75970 = target: T7, MPDZ_10, O75970
MPP2, Q14168 = target: T8, MPP2, Q14168
NHERF3_4, Q5T2W1 = target: T9, NHERF3_4, Q5T2W1
PCLO, Q9Y6V0 = target: T10, PCLO, Q9Y6V0
RADIL, Q96JH8 = target: T11, RADIL, Q96JH8
TJP1_2, Q07157 = target: TJP1_2, Q07157
Chain of TJP1_2, Q07157 (Q07157 181-274): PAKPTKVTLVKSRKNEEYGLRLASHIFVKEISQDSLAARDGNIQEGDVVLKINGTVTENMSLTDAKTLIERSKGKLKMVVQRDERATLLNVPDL

TJP2_1, Q9UDY2 = target: TJP2_1, Q9UDY2
Chain of TJP2_1, Q9UDY2 (Q9UDY2 24-128): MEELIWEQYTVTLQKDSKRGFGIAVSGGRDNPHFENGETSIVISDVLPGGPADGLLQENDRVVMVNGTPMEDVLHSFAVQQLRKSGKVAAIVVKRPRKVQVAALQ

TX1BP3, O14907 = target: T12, TX1BP3, O14907

Binder | pKd (ARHGEF11, O15085) | pKd (DFNB31_1, Q9P202) | pKd (FRMPD2_1, Q68DX3) | pKd (FRMPD2_2, Q68DX3) | pKd (GOPC, Q9HD26) | pKd (GRIP1_7, Q9Y3R0) | pKd (HTRA4, P83105) | pKd (IL16_3, Q14005) | pKd (Inadl_10, Q8NI35) | pKd (Inadl_5, Q8NI35) | pKd (Inadl_9, Q8NI35) | pKd (LIN7A, O14910) | pKd (LNX1_3, Q8TBB1) | pKd (LNX2_2, Q8N448) | pKd (MAGI1_1, Q96QZ7) | pKd (MAGI1_2, Q96QZ7) | pKd (MAGI3_2, Q5TCQ9) | pKd (MPDZ_10, O75970) | pKd (MPP2, Q14168) | pKd (NHERF3_4, Q5T2W1) | further results
SAKVRTVTSV [RASL11B, Q9BPW5] | 4.45 | 3.77 | below the threshold | 3.97 | 4.07 | below the threshold | 4.06 | below the threshold | below the threshold | below the threshold | below the threshold | below the threshold | below the threshold | 4.9 | 3.52 | 5.51 | 5.74 | below the threshold | below the threshold | below the threshold | pKd (PCLO, Q9Y6V0): below the threshold; pKd (RADIL, Q96JH8): 3.94; pKd (TJP1_2, Q07157): below the threshold; pKd (TJP2_1, Q9UDY2): 4.14; pKd (TX1BP3, O14907): 4.53
QGLAERISVL [PRKD2, Q9BZL6] | 4.77 | below the threshold | below the threshold | below the threshold | 3.98 | below the threshold | 4.06 | below the threshold | below the threshold | below the threshold | below the threshold | below the threshold | below the threshold | below the threshold | below the threshold | below the threshold | below the threshold | 3.76 | below the threshold | 3.73 | pKd (PCLO, Q9Y6V0): below the threshold; pKd (RADIL, Q96JH8): 3.99; pKd (TJP1_2, Q07157): below the threshold; pKd (TJP2_1, Q9UDY2): below the threshold; pKd (TX1BP3, O14907): 4.38
PAPSSGKDYV [CLDN1, O95832] | below the threshold | below the threshold | below the threshold | below the threshold | below the threshold | 3.87 | below the threshold | below the threshold | below the threshold | below the threshold | 3.61 | below the threshold | below the threshold | 4.07 | 3.55 | below the threshold | below the threshold | below the threshold | below the threshold | below the threshold | pKd (PCLO, Q9Y6V0): below the threshold; pKd (RADIL, Q96JH8): 4; pKd (TJP1_2, Q07157): below the threshold; pKd (TJP2_1, Q9UDY2): 3.71; pKd (TX1BP3, O14907): below the threshold

Continued, in another order:

pKd (ARHGEF11, O15085) | pKd (DFNB31_1, Q9P202) | pKd (FRMPD2_1, Q68DX3) | pKd (FRMPD2_2, Q68DX3) | pKd (GOPC, Q9HD26) | pKd (GRIP1_7, Q9Y3R0) | pKd (HTRA4, P83105) | pKd (IL16_3, Q14005) | pKd (Inadl_10, Q8NI35) | pKd (Inadl_5, Q8NI35) | pKd (Inadl_9, Q8NI35) | pKd (LIN7A, O14910) | pKd (LNX1_3, Q8TBB1) | pKd (LNX2_2, Q8N448) | pKd (MAGI1_1, Q96QZ7) | pKd (MAGI1_2, Q96QZ7) | pKd (MAGI3_2, Q5TCQ9) | pKd (MPDZ_10, O75970) | pKd (MPP2, Q14168) | pKd (NHERF3_4, Q5T2W1) | Binder | further results
5.09 | 3.9 | below the threshold | 4.44 | 4.04 | 3.51 | 4.36 | below the threshold | 3.58 | below the threshold | 3.72 | below the threshold | below the threshold | 5.08 | below the threshold | 3.53 | 4.21 | below the threshold | below the threshold | below the threshold | PDGQCTVTEV [RNF146, Q9NTX7] | pKd (PCLO, Q9Y6V0): below the threshold; pKd (RADIL, Q96JH8): 4.62; pKd (TJP1_2, Q07157): below the threshold; pKd (TJP2_1, Q9UDY2): below the threshold; pKd (TX1BP3, O14907): 4.78
below the threshold | below the threshold | below the threshold | below the threshold | below the threshold | below the threshold | below the threshold | below the threshold | below the threshold | below the threshold | below the threshold | below the threshold | below the threshold | below the threshold | below the threshold | below the threshold | below the threshold | below the threshold | below the threshold | below the threshold | NHSSSPETTA [TRMT13, Q9NUP7] | pKd (PCLO, Q9Y6V0): below the threshold; pKd (RADIL, Q96JH8): below the threshold; pKd (TJP1_2, Q07157): below the threshold; pKd (TJP2_1, Q9UDY2): below the threshold; pKd (TX1BP3, O14907): 3.87
4.79 | 4.86 | 3.59 | 5.16 | 4.22 | 3.48 | below the threshold | below the threshold | below the threshold | 3.56 | 3.93 | 4.15 | below the threshold | 3.98 | 3.63 | 3.63 | 4.27 | 3.56 | below the threshold | below the threshold | EVEEFPETSV [TRPV3, Q8NET8] | pKd (PCLO, Q9Y6V0): below the threshold; pKd (RADIL, Q96JH8): 3.81; pKd (TJP1_2, Q07157): 3.52; pKd (TJP2_1, Q9UDY2): below the threshold; pKd (TX1BP3, O14907): 4.8
